Test results taken from patent US20210100901A1 (MAINE MEDICAL CENTER RESEARCH INSTITUTE, published 2021).

Assays:
[1] = target: T1, integrin αvβ3 (human, UniProt P06756 31-1048; P05106 27-788); assay: cell-based or functional assay
[2] = target: T1, integrin αvβ3; assay: HUVEC adhesion to immobilized peptide with function blocking antibodies
Method: RGD peptides (P-1, P-2, P-3, P-4, P-5, and P-C) were immobilized (100 μg/ml) to wells. HUVEC, HMVEC, HRMVEC, and HDF cells were suspended in adhesion buffer (RPMI containing 1 mM MgCl2, 0.2 mM MnCl2 and 0.5% BSA) and 1×10^5 cells were seeded into the wells in the presence or absence of P4C10, LM609, P1F6 or control antibodies (100 μg/ml). Cells were allowed to attach for 25 min at 37° C. Media containing non-attached cells was aspirated and attached cells were washed with PBS and stained with crystal violet. Cell adhesion was quantified by measuring the optical density of eluted dye. Adhesion assays were completed at least three times with triplicate wells.
It is well established that multiple integrins recognize RGD amino acid motifs within ECM proteins. However, the ability of an integrin to bind distinct RGD epitopes depends in part on its orientation within the parent molecule and the C-terminal amino acid sequences flanking the RGD motif (25-27). Potential cell surface receptors that mediate interactions with the RGDKGE (SEQ ID NO. 1) containing collagen P-2 peptide were identified. The ability of endothelial cells to bind the RGD collagen peptides P-1 and P-2 in the presence or absence of function blocking anti-integrin antibodies was examined.

T1 sequence (P06756 31-1048, chain 1 of 2): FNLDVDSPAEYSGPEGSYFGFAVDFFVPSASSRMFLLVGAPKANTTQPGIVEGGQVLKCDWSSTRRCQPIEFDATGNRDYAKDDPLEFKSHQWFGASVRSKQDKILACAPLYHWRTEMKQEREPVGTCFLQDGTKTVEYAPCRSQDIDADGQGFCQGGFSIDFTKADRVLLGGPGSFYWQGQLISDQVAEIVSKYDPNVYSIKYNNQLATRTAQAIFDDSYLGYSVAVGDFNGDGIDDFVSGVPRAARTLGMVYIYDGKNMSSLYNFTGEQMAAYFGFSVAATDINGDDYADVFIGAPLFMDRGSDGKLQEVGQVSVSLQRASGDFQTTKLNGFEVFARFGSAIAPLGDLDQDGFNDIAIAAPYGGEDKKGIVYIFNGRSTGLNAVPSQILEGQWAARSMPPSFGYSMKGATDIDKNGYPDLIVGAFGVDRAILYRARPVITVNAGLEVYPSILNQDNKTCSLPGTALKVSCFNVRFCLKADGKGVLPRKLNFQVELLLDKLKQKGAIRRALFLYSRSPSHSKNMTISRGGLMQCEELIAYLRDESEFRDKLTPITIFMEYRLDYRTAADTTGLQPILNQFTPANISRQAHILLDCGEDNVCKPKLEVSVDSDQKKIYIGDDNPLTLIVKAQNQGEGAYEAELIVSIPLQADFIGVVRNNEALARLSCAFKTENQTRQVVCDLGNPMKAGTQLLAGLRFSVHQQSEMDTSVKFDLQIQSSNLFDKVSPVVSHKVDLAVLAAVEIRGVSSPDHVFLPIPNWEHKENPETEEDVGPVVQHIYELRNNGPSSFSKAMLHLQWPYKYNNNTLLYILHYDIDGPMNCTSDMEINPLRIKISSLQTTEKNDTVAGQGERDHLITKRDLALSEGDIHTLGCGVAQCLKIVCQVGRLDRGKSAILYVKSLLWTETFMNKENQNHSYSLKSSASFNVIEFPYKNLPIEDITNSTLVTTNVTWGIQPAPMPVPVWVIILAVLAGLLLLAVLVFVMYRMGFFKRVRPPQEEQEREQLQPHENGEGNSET
T1 sequence (P05106 27-788, chain 2 of 2): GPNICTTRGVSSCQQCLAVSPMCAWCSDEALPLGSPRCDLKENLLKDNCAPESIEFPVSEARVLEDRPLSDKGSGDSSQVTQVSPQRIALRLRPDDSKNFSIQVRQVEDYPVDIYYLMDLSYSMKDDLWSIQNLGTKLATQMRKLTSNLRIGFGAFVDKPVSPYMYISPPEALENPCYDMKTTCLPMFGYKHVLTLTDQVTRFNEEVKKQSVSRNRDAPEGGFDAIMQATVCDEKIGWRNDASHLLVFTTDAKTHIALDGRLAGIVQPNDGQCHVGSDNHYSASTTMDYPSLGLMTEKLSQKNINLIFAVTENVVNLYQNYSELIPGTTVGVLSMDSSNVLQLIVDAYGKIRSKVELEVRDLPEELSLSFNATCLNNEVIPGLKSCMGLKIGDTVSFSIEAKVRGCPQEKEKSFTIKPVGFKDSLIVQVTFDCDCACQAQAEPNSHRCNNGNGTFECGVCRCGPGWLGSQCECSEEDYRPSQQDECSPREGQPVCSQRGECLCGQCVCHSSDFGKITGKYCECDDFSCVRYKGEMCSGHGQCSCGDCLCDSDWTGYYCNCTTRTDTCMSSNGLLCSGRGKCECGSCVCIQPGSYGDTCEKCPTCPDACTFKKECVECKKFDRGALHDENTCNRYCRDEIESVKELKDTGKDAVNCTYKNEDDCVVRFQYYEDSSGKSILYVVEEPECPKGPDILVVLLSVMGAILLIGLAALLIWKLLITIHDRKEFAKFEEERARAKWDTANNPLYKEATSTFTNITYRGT

| Binder | Src phosphorylation (Western blot of HUVEC attached to the peptide, serum free) [1] [fold] | β3-integrin phosphorylation (Western blot of HUVEC attached to the peptide, no growth factors) [1] [fold] | binding result [2] |
| --- | --- | --- | --- |
| CQGPRGDKGEC [Synthetic collagen RGD containing peptide P-2 (CQGPRGDKGEC)] | ~2 | > 3 |  |
| CKGDRGDAPGC (2) [Synthetic collagen RGD containing peptide P-1 (CKGDRGDAPGC)] |  |  | binds |
